# The DeepSol protein solubility set
# Assay: soluble on expression in E. coli; label from the status in PepcDB or PDB records
row,Sequence,soluble on expression in E. coli
1,MGSDKIHHHHHHMRNLISETKSLYKLIDFKDVQIFGDAANYTCILFLKIYKNDVFSYIFPKSTDTFTIQSVSNVDTFQEYKLPLPKPDHPWILSENKVSELIRKLSRKGIPLEIISKNIFQSLTTSADGIYFVQVESETRDTAKIRNIKNNLEFAVEKTILRKLLKGKDIRRCSVDWKGSYVVYPYLVKDDKASLITLSEIKDRYPLAYEYFKHYELQLKTREDNKLKDDENWHQYIYRKNLEKFEQKKIVTQVLASKNTFAIDLNGEFYFVGGDNAGGYGIVLNDNNQNMYYFVLALLNSNVLEFYLKNISTPFRGGYFSYGKRFIDKLPLLIPKDSRFDSVSSLSKEQMNISKKMRNFPNTDERDLLEREYDKRCQELNQMIYEIYGLNKLEITLLDDRLCQ,not soluble
2,MDDHGRTPSTNQPILYVLDTNVLIHDPNALLNFEEHHVAIPMTVLEELDKLKAGKHSVAAECRQAIRLIDKTLGEASPEEVEKGVPIDRGTGVFKGFLSILMSKREEPNSLLPEHLNDNIIINQLIDLHARNKDLSVVLVTKDINMRLKARACGIDAEDYSTDQLVDDVSLLSRGYHDMTGSFWDRVNKVDTRQERGRTWHRVQLNEMLPAVHINEFIVDEQGFVGWIKGVKNDELLILDMHQEPLLHQEAWGLKPRDIYQGLALFALLDPDIHLVNLSGPAGSGKTILALAAAIEQTMVTKRYRRIIATRSVQGLDQEIGFLPGTEAEKMEPWLGAITDNLEALHMDDENTHGSVDYILSKVPLQFKSLNYIRGRSFQQSLILIDECQNLTPHQMKTIITRAGAGSKVVCLGNLAQIDTPYLSATSSGLTYLTERFKDFPNGVHLTLQGVPRSILAEYAESHL,soluble
3,MAHHHHHHMKENVLINENIKAHEEKGNLNDDKRDEHMISLRGLNIYYKDKLENLNTIKNIDNNKKFIKLVLEDVDLKPEEIMKHILHLLKEKTSLHTILEINKQKYKIKYKEIIPDDHILFTQNIQNITNCKYALLGILKVSKYTKKNTFNEKLLQSWQDVPMEF,not soluble
4,MNRMRWVGEGDIWDLDMSTPVTLEGTARAVPDDPLPLGLSRGTRLSRPKQVEFFHRFMASPLIPSFSPIRPNTGDGGGGGFSLQRVLTLPFSNNWLVSLLGQFDVQRFVTEIDKTKAFGRGSSSTVASRLNTIGKHLKDKSLYALGFCSEFLLSPDDTLLLSYDAYKGDLDKNPRAKAIFNHEFPLHNLTAEAVWPGLFVDKHGEYWDVPLSMAIDLASLPAESGPSYHLCLHHNSGSPKKLHSDTMEVPPPSLLPGLSLKSAVSYRTNMDLWRGTTPKLETCKPYDVFLSSPHVAVSGIIGSVMTAAFGENSIRSKFENDSEGVGGFSLHFPSVNSGFMADALGRASLTAQYGNFQKFFFDLTRFHARLDFPHGLRFLTGATSVAQDLLNSRQPSLEAFQKICPEVLVSLQQQIVGPFSFKVESGIEIDLRNGANPVTVDKTVFAIEYALQVLLSAKAVVSYSPKQNEFMVELRFFET,soluble
5,MFSVRRYRHKRNSLNIDTREITLEPADNARLLSLCGPFDDNIKQLERRLGIEINRRDNHFKLTGRPICVTAATDILRSLYVDTAPMRGQTQDIEPEQIHLAIKEARVLEQSAESVPDYGKAINIKTKRGVIKPRTPNQAQYIANILDHDITFGVGPAGTGKTYLAVAAAVDALERQEIRRILLTRPAVEAGEKLGFLPGDLSQKVDPYLRPLYDALFEMLGFEKVEKLIERNVIEVAPLAYMRGRTLNDAFIILDESQNTTIEQMKMFLTRIGFNSKAVITGDVTQIDLPRNTKSGLRHAIEVLAEVDEISFNFFHSEDVVRHPVVARIVNAYEAWEEAEQKRKAALAAERKREAQEQEQK,not soluble
6,MGSDKIHHHHHHMIISDVLYGEFEVDQVVEELILSKSVQRLKGIHQTGASYLVNKEWNVTRFDHSVGVMLLVKKLGGSVEEQIAGLLHDVSHTAFSHVVDYVFDNRNESYHEEIFSSVVKHSEIPAILAKYGYNYEEILLDDSKWTLLERSAPELCADRVDYTLRDMYTYGYISLEEAHSFLEDVIEVNGKMVLQNIEMAEWFTETYYKEVIDFFMQPMNSYGNDMLAKTLKLALHKKVIHADDFLLEDDELISKLQQCSDPEVHALVSKVHPNVKVKEDRNDYDLYQNNKVRLIDPSLLREGEVVPSSVVSENIRKMSEIAYEKAVRGMYVKVVSD,not soluble
7,MARKALIEKAKRTPKFKVRAYTRCVRCGRARSVYRFFGLCRICLRELAHKGQLPGVRKASW,soluble
8,MGSDKIHHHHHHLNVYHASLEEAQADPRLKGLQGASPFERLDWLALLANECLDPARARLSVVTSGECMAALPWIEREGRIDALANWYSFFVSPLGDSALLSRIVEALPHGRAAFAPLPEEDARLLARAFRNAGWCTLAAPCDVNHVLPVEGRSFAQYWAERPGALRETVRRKSRKGEVSLRILTEFSPEDWEAYETIYRLSWKPGEGSPAFLRKWAEADGEAGRLRLGIAEIDGAAVAAQFWTVEGGTAYIHKLAHDERFRKSSPGTLLTAAMFEHVIDRDRVDLIDFGTGDDPYKRDWMDDVRSRWSVQAWRPGAVRHWPSLALALARTLAGQIMRPLVSRNGDG,not soluble
9,MITFKPTRNIDLIEAVGNHPDIIAGSNNGDGYDYKPECRYFEVNVHGQFGGIVYYQEIQPLTLDCHAMYLPEIRGFSKEIGLAFWRYILTNTTVQCVTSFAARKFRHGQMYCAMIGLKRVGTIKKYFKGVDDVTFYSATREELIDFLNHGR,not soluble
10,MDVIPLSLGLETMGGLVEKVIPRNTTIPVARAQDFTTFKDGQTAMSIHVMQGERELVQDCRSLARFALRGIPALPAGGAHIRVTFQVDADGLLSVTAMEKSTGVEASIQVKPSYGLTDSEIASMIKDSMSYAEQDVKARMLAEQKVEAARVLESLHGALAADAALLSAAERQVIDDAAAHLSEVAQGDDVDAIEQAIKNVDKQTQDFAARRMDQSVRRALKGHSVDE,soluble
11,MSLRVADLLQHINLMKTSDSYGFKEEYESFFEGQSASWDVAKKDQNRAKNRYGNIIAYDHSRVILQPVEDDPSSDYINANYIDGYQRPSHYIATQGPVHETVYDFWRMIWQEQSACIVMVTNLVEVGRVKCYKYWPDDTEVYGDFKVTCVEMEPLAEYVVRTFTLERRGYNEIREVKQFHFTGWPDHGVPYHATGLLSFIRRVKLSNPPSAGPIVVHCSAGAGRTGCYIVIDIMLDMAEREGVVDIYNCVKALRSRRINMVQTEEQYIFIHDAILEACLCGETAIPVCEFKAAYFDMIRIDSQTNSSHLKDEFQTLNSVTPRLQAEDCSIACLPRNHDKNRFMDMLPPDRCLPFLITIDGESSNYINAALMDSYRQPAAFIVTQYPLPNTVKDFWRLVYDYGCTSIVMLNEVDLSQGCPQYWPEEGMLRYGPIQVECMSCSMDCDVINRIFRICNLTRPQEGYLMVQQFQYLGWASHREVPGSKRSFLKLILQVEKWQEECEEGEGRTIIHCLNGGGRSGMFCAIGIVVEMVKRQNVVDVFHAVKTLRNSKPNMVEAPEQYRFCYDVALEYLESSEGHHHHHH,soluble
12,MLPKPGTYYLPWEVSAGQVPDGSTLRTFGRLCLYDMIQSRVTLMAQHGSDQHQVLVCTKLVEPFHAQVGSLYIVLGELQHQQDRGSVVKARVLTCV,not soluble
13,MKDVILVIYSLIKMTKLRSCPLDDCNSSETYFQLDKHLKNEHDGLVLLMVDPQSQWRCEQMKRHVEYVDLMSATEIPHIAEVVHHQLPYIDTLIIFRCLS,soluble
14,MGSDKIHHHHHHMRLKELLPNFLIVHQEVPEDPIAFKSTDKRENENKEITIPELIDTKVPELADGATDTLYGLLVNGHLQTAYGSFRHFDNIYKVQYKRMIIKYPHGGEGTVDFAVNGRSTKRRKVEKEYVPTSQPVFNGNLKRRYSYYSPDDPKLNSDDAKPMLIILHGLTGGSRESYVRAIVHEITTKYDFEACVFNARGCCYSAITTPLLYNGGWTNDIRYCVNDLRKRFPNRKFYMMGFSLGASIMTNYLGEESDRTKIECAISVSNPFDLYNSAYFINSTPMGSRFYSPALGHNLLRMVRNHLSTLEENPDFKDVIEKHLKKIRTVRQFDNLLTGPMFGYKNAEEYYKNASSYKRIPGIRTPFIALHAQDDPIVGGDLPIDQIKSNPYTLLLETSTGGHVGWFKDRSGRRWYAEPLCRFLKIFHDEITVKGLKPDLENVQLPDPNCEPIATTFRAN,not soluble
15,MSTRWRYYNSKRGNGFRGRGRGRGRGTSLTAVALPRDDNFHKGAQDGAYFKDMPMDPEQFRDETVLSLSFAQGMLGAAYYEQSSQLLKIMNDISEDLEFRFLKRLIDDVKPTLIIANRSQDLEFIKFLTTRYDPQEKIYEDGTTEEGTSEDTVPTWDSSLAYSTDETTAEKEEKEEDEDDDDEGLPAKLNKLPNNFFRMSRAIERLKAMAGSHDSSMTEEDKYIIIKMRFDIEAVNMIRSFGALLLFLDETRMGVTDDPLSVTSPIKSIKTFTLGNLVEIDFNTIQALDILPKETENKKTFGQGRSLYQLMDKCRSTVGKKCLRKWFRNPTTDRDDLVSRQKCVHYFKQDWNAEVTAKLSSILGRVKALNSVFQKFQSGTAQLIHWECFVSTVNALVEILNIIRQTPISKEFPVESDLLREVSEIAVIAGSIINFAESKIQGRVTVMNGIDEELDEIRDTYENMPMVLTAIAKQEEARLGLPPYSNVACVYIPLVGFVLSVPRDYGVESQPDMTLLYSTHEDLRVRNATTSRLDDEFGDILMRLIDSQTAIILTLKTRVMKKKRSIIKLLSIASRIDVLISFGLIAAQNGWNCPALVDEPVIEAVELYHPISVLVVKKSFVPNQVSSGRDGIKASIITGPNACGKSVYMKSIGIMVFLSHIGSFVPARHAKIGIVDRIVTRMFTVDSVLDGMSTFAKDVEQVALALRKATGNSLVIIDEFGKGTMTEVGLSLLASVMTYWMNRGADRCPHIFLSSHFHALPNYIPLETNIATFLTFTVLREAGGKIKYLFRMTPGLVDCSFALSVAKEEGIPPPVIGRACRIYKALKAGTLLKEIKAEVSNDNEKQLVEDMDVVLADEDGFMAAVESFVKRKKTSFCESSMRNVSEEIEKERSEASTPASKSRSTITARSNSVLSSRSMASVDQLSVLDALLPKKKKKKVTGSSMESSMSPDPFQEEDEGTEGEEDQISAPVSRPTLPSVQKYASEEEKQQSINSRHSFSTRTAIHIPTPIQMGEAGGVKRPRSTSTSSPGPSASKSVRTEVFKKTPNVKESQVLETPKQLSISSFLEPKFPSSEKDVISRVSERYLQSDPFKTPISDRRSQQSSRHSTPKNRSMNQSLIQSARDTPHETIRSSNEVNPEFFNIFNFPDDSILKSQDTYDPNVTPRSSSRRELRPDVSHSQNSQFGEVFSELGTQFSIFNSQQSFPGNSMGTTNPDCSIFDDFFANSQDGEKKIDSTKTSMPIVNSDNFIFKTPEPRSSEKQRSLLKNKGQASNSSISPSSLILGQLAFGDVDQTPRPRGDNPIEFQYDVVDDDDPIFEEKNCSAPVFEFLKSNDDEEDDEFLKSFLETEGSLHIDTSADETIDRSKRS,not soluble
16,MYHNNNYGYNNHRGGGGFRHNNYNNNNNNHHHHYNNLPRINETQVPQSKHTIFIRGLHGDISTEEIKEYIGEKVGKISFDFVKVAQDKSKIFVAVRFENRDEAKEFMETYSDREFMGCRCDLSWFRDIRRYCAYQRAKQVRSNSQRRRRRSDSQESSKRSASPPVRRGRSKSRSRSRSPSRSRSRSRSRSVSRSKSPASRNGRVSRHRSRSQNRSRSRSNTRSRSRSSGRSGSAHSRKSDDVDSFDDESFDEKSRVKDNEARQKRRRELSDDDRKDVRETQPKKSVKEELPQIPLPPKTEAAASPSPAPPTPKASKSASFIPPPTADDMELESPPHVSNNQYEYQQSNNTYNQIRTGASPVSVSYSVPMEVEATPKMIVRETPQPAQPPVQVNSYYTTTPIQQQQQQQQPIPPQLPTACAPVCKYLTKIFRVETRYHIPRGANFHVCVIRFSPPQPPPTTPQPAFVPRQIGRIEIVMPSSLPAPVVSAAAASASAAAHPVAMNGSAISGGSSMPDITMHPNTNKLFGHLKAFQSALLSTVKYEPPARKEEDEAGFSTLRLSSLATEDDSADEEKAMVRELKLAKLNDEQMMRFHIKKKQLESAFRNDCETYAVVTRALLAKDESLQFGLKMALLENMEDLYKKMMQRVDDQLDALLVMA,not soluble
